Entries after “also recorded” stand apart in the source; their conditions may differ.

For data set [1] the following is noted: mouse, in vivo, cited from earlier work.
Data set [2] has as its system lupus-prone NZBWF1 mice. The experiment in a line: Kaplan-Meier survival in spontaneous SLE mouse model NZBWF1. The note with it: for mice still alive at the end of the study: 330 days. The data set is classed as in vivo. How it is done: NZBWF1/J mice develop an autoimmune disease resembling human systemic lupus erythematosus. […] The animals were maintained under standard laboratory conditions, at 20-24° C. and 40-70% relative humidity, with 12-hour fluorescent light/12-hour dark cycle. They were feed standard diet and tap water ad libitum.
(§1) Both IP and SC administrations for C4BP(β−), CYP and PBS (150 μl/each) were performed with a 25-gauge needle during 30 s, after rinsing the skin with 70% ethanol.
(§2) The detailed administration schedule was as follows (Table 5):
(§3) One-way analysis of variance (ANOVA) with post hoc tests was performed to compare proteinuria throughout the follow up. Survival data were analyzed using Kaplan-Meier curves and long-rank test. P value<0.05 was considered significant. Data are expressed as mean±SEM.

Data set [3] has as its system lupus-prone NZBWF1 mice. The experiment in a line: Renal function (24 h proteinuria) in spontaneous SLE mouse model NZBWF1. The data set is classed as in vivo. Conditions: for delay in the onset of proteinuria: vs PBS-treated control. As for the experimental part:
Mice, Study Design and Follow Up
NZB/NZW F1 or NZBWF1/J (Charles-River), NZB/NZW F1 (Jackson, code 100008) are a hybrid cross between NZB/B1NJ (Jackson, code 000684) Female x NZW/LacJ (Jackson, code 001058) Male. NZBWF1/J mice develop an autoimmune disease resembling human systemic lupus erythematosus. The inventors used 58 females (30-35 g/each) aged 15 weeks for the study (4-5 animals per cage). The animals were maintained under standard laboratory conditions, at 20-24° C. and 40-70% relative humidity, with 12-hour fluorescent light/12-hour dark cycle. They were feed standard diet and tap water ad libitum. […]
Dose Selection and Administration.
The selection of the C4BP(β−) dose for in vivo administration was based in previous studies employing complement-related proteins in immune-inflammatory pathologies. Blom et al. (Blom et al. 2009. Ann. Rheum. Dis., 68:136-42) used the C4BP isoform lacking β chain in experimental collagen-induced arthritis (CIA) and collagen antibody-induced arthritis (CAIA) mice to investigate the influence of complement activity in the treatment of rheumatoid arthritis. These authors administered intraperitoneally C4BP (2 mg/mouse) using a multiple dose-regimen once every two days in preventive and therapeutic experiments. Thus, in the current study, C4BP(β−) was administered both intraperitoneally (IP) and subcutaneously (SC) into NZBWF1 mice for three months (between six and nine months of age).
Alperovich et al (Alperovich et al. 2007. Lupus, 16:18-24) administered cyclophosphamide (CYP) to NZBWF1 mice at 50 mg/kg IP every 10 days.
as §1, §2
Body weight was determined twice monthly from the beginning to the end of follow-up. Mice were placed in metabolic cages to collect 24 h urine specimens before the onset of treatment and monthly thereafter. Blood was obtained from the tail vein at monthly intervals.
Renal Function Analysis: Proteinuria
24 h urinary protein was determined by pyrogallol red (Olympum Autoanalyzer AU400, Hamburg, Germany) in the Veterinary Clinical Biochemistry Laboratory from Universitat Autonoma de Barcelona.
as §3

Data set [4] concerns human monocyte-derived DCs. The experiment in a line: Immunomodulatory activity over human monocyte-derived DCs: CD83/CD86 surface expression by flow cytometry after LPS maturation. The data set is classed as cell-based. Conditions: FIG. 4. How it is done: In Vitro Functional Assessment of the Immunomodulatory Activity of Full-Length C4BP(β−) and C4BP(β−) Variants Over DCs
The inventors used for the in vitro study both C4BP(β+) (WT) and recombinant C4BP(β−) isoforms, and the above-referred mutants or variants: Mutant 1 and Mutant 2. C4BP(β+) isoforms refer to the major C4BP α7β1 plus the minor C4BP α6β1 isoforms (both in complex with ProS) purified from pooled human plasma.
RPMI 1640 was supplemented with 100 μg/ml of streptomycin, 100 IU/ml of penicillin, 2 mM L-glutamine (all from Invitrogen, Carlsbad, CA) and 10% heat-inactivated fetal bovine serum (Linus, Cultek, Spain) (complete medium), unless otherwise stated.
Peripheral blood mononuclear cells (PBMCs) were obtained from buffy coat preparations collected from healthy donors from the Blood and Tissue Bank (Barcelona, Spain) after Ficoll-Paque™ density centrifugation (GE Healthcare Bio-Sciences AB; Uppsala, Sweden). For surface phenotype determination, monocytes were plated at 1×10^6 cells/ml in 60 mm culture plates (Corning, Spain), in RPMI 1640 medium without serum, and allowed to adhere for 2 h at 37° C. in 5% CO2. The non-adherent cells were removed by washing in PBS.
Monocyte-derived DCs were generated supplementing the monocyte cultures with complete RPMI 1640 medium plus GM-CSF (800 UI/ml) and IL-4 (500 UI/ml) (both from Gentaur, Kampenhout, Belgium) at day 0 and day 3 of culture. For DC maturation, at day 5 iDCs were further stimulated for 48 h with 5 μg/ml LPS (Escherichia coli 055.B5, Sigma L2880, Copenhagen, Denmark).
Staining using the fluorescent dye 7-amino-actinomycin D (7-AAD) (BD Pharmigen) and flow cytometry analysis was employed to assess the viability status of C4BP-treated and untreated DCs.
Cell surface phenotypes were analyzed by flow cytometry using the following mAbs: FITC-conjugated anti-CD83 (HB15a) and PE-conjugated anti-CD86 (HA5.2B7) (all from Beckman-Coulter). The respective isotype controls FITC-conjugated anti-IgG2b (H2) and PE-conjugated anti-IgG2b (H2), were from the same commercial sources. After washing with PBS, cells were subsequently stained with 3 μl mAb/10^5 cells in 100 μl of FACS buffer (PBS containing 1% BSA and 0.1% sodium azide) for 20 min at room temperature. To exclude dead cells and debris, DCs were gated according to forward scatter (FSC) and side scatter (SSC) parameters. Stained cells were analyzed using a FACSCalibur (Becton Dickinson, Franklin Lakes, NJ) equipped with CellQuestPro software (Becton Dickinson).
In Vitro Functional Assessment of C4BP(β−) Immunomodulatory Activity Over DCs
The inventors used for the in vitro study both C4BP(+) and C4BP(β−) isoforms. C4BP(3+) isoforms refer to the major C4BP α7β1 plus the minor C4BP α6β1 isoforms (both in complex with ProS) purified from pooled human plasma, as previously described (Dahlbäck B. 1983. Biochem J., 209:847-56).

Where [5] appears, read: IP, 5 μg/mouse once every two weeks.
Where [6] appears, read: IP, 50 μg/mouse once every two weeks.
Where [7] appears, read: IP, 500 μg/mouse once every two weeks.

B1: C4BP: human C4b-binding protein as used by Blom et al. 2009, intraperitoneally in mice (protein, UniProt P04003 49-597; P20851 18-252, looked up)
C4b-binding protein alpha …: NCGPPPTLSFAAPMDITLTETRFKTGTTLKYTCLPGYVRSHSTQTLTCNSDGEWVYNTFCIYKRCRHPGELRNGQVEIKTDLSFGSQIEFSCSEGFFLIGSTTSRCEVQDRGVGWSHPLPQCEIVKCKPPPDIRNGRHSGEENFYAYGFSVTYSCDPRFSLLGHASISCTVENETIGVWRPSPPTCEKITCRKPDVSHGEMVSGFGPIYNYKDTIVFKCQKGFVLRGSSVIHCDADSKWNPSPPACEPNSCINLPDIPHASWETYPRPTKEDVYVVGTVLRYRCHPGYKPTTDEPTTVICQKNLRWTPYQGCEALCCPEPKLNNGEITQHRKSRPANHCVYFYGDEISFSCHETSRFSAICQGDGTWSPRTPSCGDICNFPPKIAHGHYKQSSSYSFFKEEIIYECDKGYILVGQAKLSCSYSHWSAPAPQCKALCRKPELVNGRLSVDKDQYVEPENVTIQCDSGYGVVGPQSITCSGNRTWYPEVPKCEWETPEGCEQVLTGKRLMQCLPNPEDVKMALEVYKLSLEIEQLELQRDSARQSTLDKEL
C4b-binding protein beta chain: SDAEHCPELPPVDNSIFVAKEVEGQILGTYVCIKGYHLVGKKTLFCNASKEWDNTTTECRLGHCPDPVLVNGEFSSSGPVNVSDKITFMCNDHYILKGSNRSQCLEDHTWAPPFPICKSRDCDPPGNPVHGYFEGNNFTLGSTISYYCEDRYYLVGVQEQQCVDGEWSSALPVCKLIQEAPKPECEKALLAFQESKNLCEAMENFMQQLKESGMTMEELKYSLELKKAELKAKLL
As for B1, the “initial amount remaining in the circulation” value in data set [1] (ip) is 3%. The “clearance from the circulation” value in data set [1] is “cleared fast”.

B2: rC4BP(β−): recombinant C4BP isoform lacking the β-chain, transiently produced in HEK293 cells (Expi293 cells) (protein, UniProt P04003 49-597, looked up)
C4b-binding protein alpha …: B1 C4b-binding protein alpha …
modifications: alpha-chain-only isoform, recombinant
On to B2, for which the survival entry in data set [2] (IP, 5 μg once every two weeks, all mice died at end of study (330 days)) was “performed similarly to the control PBS-treated group”. In addition, in data set [2] (IP, 50 μg once every two weeks), the “mice still alive at the end of the study” value was 20-30%. The “mice still alive at the end of the study” value in data set [2] (IP, 500 μg once every two weeks) is 20-30%. Moreover, the “mice active at the end of the study” value in data set [2] (SC route, all treatment groups) is reported as “maintained mice active at the end of the study”. Also, in data set [2] (SC, 50 μg once every two weeks), the “mice alive at 330 days” value is “more than 60%” and the “survival respect to control PBS-treated mice” value was “appreciably delay their survival; also recorded: best survival rate”. Further, in data set [2] (SC, 50 μg, NZBWF1 mice), the “progress of the disease” value is “substantial slowing of the progress of the disease”. In addition, the “statistical analysis of Kaplan-Meier survival curves vs control PBS-treated group” value in data set [2] (any of the rC4BP(β−)-treated groups, n=6) is listed as “no statistically significant differences”. The “survival, subcutaneous route compared with intraperitoneal route” value in data set [2] (doses of 5 μg and 50 μg, FIG. 6) was “higher”. Further, in data set [3] (setting [5]), the “proteinuria by week 37” value was “severe proteinuria indistinguishable from the PBS-treated control group” and the “delay in the onset of proteinuria” value came out at 2 week. In addition, in data set [3] (setting [6]), the “proteinuria by week 37” value is “severe proteinuria indistinguishable from the PBS-treated control group” and the “delay in the onset of proteinuria” value worked out at 2 week. Besides, in data set [3] (setting [7]), the “proteinuria level at the end of the study (week 37)” value was roughly 300 mg protein/kg and the “delay in the onset of proteinuria” value came out at 6 weeks. Besides, in data set [3] (SC, 50 μg once every two weeks), the “proteinuria by week 37 (end of the study)” value was less than 200 mg/kg. In addition, the “onset / development of proteinuria” value in data set [3] (mouse, in vivo, sc) was “significantly delayed; also recorded: strongest attenuation of proteinuria development”. For the same molecule, in data set [3] (same regimen, SLE mouse model), the “efficacy, SC 50 μg/mouse vs IP 500 μg/mouse” value is given as “more effective than the intraperitoneal administration of 500 μg/mouse”. In data set [4] (MoDCs pre-incubated with 5 μg/ml protein, LPS challenge), the “semi-mature, anti-inflammatory phenotype conferred to LPS-matured MoDCs (immunomodulatory activity)” value was “able to confer an analogous semi-mature, anti-inflammatory phenotype”. In data set [4] (human MoDCs, 5 μg/ml C4BP isoform, LPS 5 μg/ml), the “CD83 and CD86 surface marker expression” value was “restrain similarly CD83 and CD86 surface marker expression”.

The record behind these values is US12006343B2, “C4BP-based compounds for treating immunological diseases” (FUNDACIO INSTITUT D'INVESTIGACIO BIOMEDICA DE BELLVITGE …, priority 2017, dated 2024).
